Results published in patent US20190177370A1 (TOKYO UNIVERSITY OF PHARMACY AND LIFE SCIENCES, published 2019).
Square brackets hold non-standard residues; d marks the D form. Primed or numbered codes have the meaning given here. * marks the point of attachment. m‑dPEG(4)″ = m-dPEG(4) acid, coupled to Acp (R^111 group of Formula (4)), COCCOCCOCCOCCC(=O)*; m‑dPEG(4) = m-dPEG(4) acid, coupled to Acp, with Acp forms R^111 of Formula (4); Propanoyl(3,3-Ph2) = O=C(CC(c1ccccc1)c1ccccc1)*; 2Nal = N[C@@H](Cc1ccc2ccccc2c1)C(=O)O; Chg = N[C@H](C(=O)O)C1CCCCC1; R^118 = not defined here; Ahx = NCCCCCC(=O)O

T1: myostatin (UniProt O14793 267-375, limits assumed)
T1 sequence (looked up): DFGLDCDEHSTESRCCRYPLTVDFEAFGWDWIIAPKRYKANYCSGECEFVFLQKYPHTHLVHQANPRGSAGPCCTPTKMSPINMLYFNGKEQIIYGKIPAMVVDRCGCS


Biological target: T1, myostatin
Assay: cell-based or functional assay

| Binder | myostatin inhibitory activity at 0.3 µM (luciferase reporter assay) [% inhibition] | myostatin inhibitory activity at 1 µM (luciferase reporter assay) [% inhibition] | further results |
| --- | --- | --- | --- |
| H-WYIRWIP[Chg]QIWSR[Chg]RL-NH2 (SMILES CC[C@H](C)[C@H](NC(=O)[C@H](CCC(N)=O)NC(=O)[C@@H](NC(=O)[C@@H]1CCCN1C(=O)[C@@H](NC(=O)[C@H](Cc1c[nH]c2ccccc12)NC(=O)[C@H](CCCNC(=N)N)NC(=O)[C@@H](NC(=O)[C@H](Cc1ccc(O)cc1)NC(=O)[C@@H](N)Cc1c[nH]c2ccccc12)[C@@H](C)CC)[C@@H](C)CC)C1CCCCC1)C(=O)N[C@@H](Cc1c[nH]c2ccccc12)C(=O)N[C@@H](CO)C(=O)N[C@@H](CCCNC(=N)N)C(=O)N[C@H](C(=O)N[C@@H](CCCNC(=N)N)C(=O)N[C@@H](CC(C)C)C(N)=O)C1CCCCC1) [nPDM-77] | ≥ 40 | – | – |
| {Propanoyl(3,3-Ph2)}-YIRWIR[Chg]QIWSR[Chg]PL-NH2 (SMILES CC[C@H](C)[C@H](NC(=O)[C@H](Cc1ccc(O)cc1)NC(=O)CC(c1ccccc1)c1ccccc1)C(=O)N[C@@H](CCCNC(=N)N)C(=O)N[C@@H](Cc1c[nH]c2ccccc12)C(=O)N[C@H](C(=O)N[C@@H](CCCNC(=N)N)C(=O)N[C@H](C(=O)N[C@@H](CCC(N)=O)C(=O)N[C@H](C(=O)N[C@@H](Cc1c[nH]c2ccccc12)C(=O)N[C@@H](CO)C(=O)N[C@@H](CCCNC(=N)N)C(=O)N[C@H](C(=O)N1CCC[C@H]1C(=O)N[C@@H](CC(C)C)C(N)=O)C1CCCCC1)[C@@H](C)CC)C1CCCCC1)[C@@H](C)CC) [3,3-diphenylpropionyl-nPDM-85] | ≥ 40 | – | – |
| {m‑dPEG(4)″-Ahx}-[2Nal]YIEWIKIQIISKLRL-NH2 (SMILES CC[C@H](C)[C@H](NC(=O)[C@H](Cc1ccc(O)cc1)NC(=O)[C@H](Cc1ccc2ccccc2c1)NC(=O)CCCCCNC(=O)CCOCCOCCOCCOC)C(=O)N[C@@H](CCC(=O)O)C(=O)N[C@@H](Cc1c[nH]c2ccccc12)C(=O)N[C@H](C(=O)N[C@@H](CCCCN)C(=O)N[C@H](C(=O)N[C@@H](CCC(N)=O)C(=O)N[C@H](C(=O)N[C@H](C(=O)N[C@@H](CO)C(=O)N[C@@H](CCCCN)C(=O)N[C@@H](CC(C)C)C(=O)N[C@@H](CCCNC(=N)N)C(=O)N[C@@H](CC(C)C)C(N)=O)[C@@H](C)CC)[C@@H](C)CC)[C@@H](C)CC)[C@@H](C)CC) [PDM-31] | – | ≥ 40 | – |
| {R^118}-RQNTRYSRIEWIKIQIISKLRL-NH2 (reading uncertain; also: N-terminal R118 group (Formula 11) structure not given here, printed as R118-RQNTRYSRIEWIKIQIISKLRL-NH2) [3d] | – | – | IC50 of the myostatin inhibitory activity (luciferase reporter assay, 0.016 to 2 µM): 273 nM |
| {m‑dPEG(4)-Ahx}-FYIEWIKIQIISKLRL-NH2 [PDM-32] | – | ≥ 40 | – |
